Data taken from the DeepSol protein solubility set.

Assay: soluble on expression in E. coli; label from the status in PepcDB or PDB records

Sequence	soluble on expression in E. coli
MKKFALATIFALATTSAFAGFNGNNSQGGFQQAAPAAISVKQALSAADNSMITLVGNITQQIDDDEFWFTDGTGQIKIEIKKRVWNGLNVDSKDKVKIYGKLDNEVFEKAELDVLRIEKAE	not soluble
MSLELVSLLMQDCQSTGDIQSKLKRLFAGTIEQMLEAEMEDHLGYEKNSIEGNNSGNSRNGYNRKTIISDYGASEIAVPRDRNGEFEPKILEKRQTRTDEIEQKILSMYSKGMSQRDIEDTLREIYGAEIPQTLISKITDKILPEVNEWQNRPLESVYPIIYFDGIVFKSRKDSQIINKCVYSVLGIDMNGHKDILGIWLSENESASFYASICSDLKKRGIQDIFIACHDNLKGLGEAINAVFPKTKQQLCIVHQIRNSTKFVQYKDRKAICADLKKIYGAVNLDDAEYAKEEFREKWDKKYPSILRSWDANWAELTTFFNYPEQIRHLIYTTNAVEAYHRMVRKFTKTKSIFPTDDSIRKVVFLSSREITKKWTQPSRGWPMAYSQIMIFFADRFIAEGHHHHHH	soluble
MQKFILSAFVVALVAADCALKCPDGYFSFKRAPSAKNSMTGLWCVKAILSDTLISPNQAKQVCEKDGSILTSFENLDERTKLATVLRDFLSAKKLDRGGMIVDGHRLKNCETDDRTVLNAEPCRNSSTGFTTDEKHTDNTFMWKSWADTEPGQSIFEKQIESCLQLAISQFKSRTELINDVFCNYVKHPQNEGAYDLWNYGAVCGRLPEWN	not soluble
MGSDKIHHHHHHMKQLVELERSSLGPQEAPVRLALSPDAGSPRDPQWQGPSGGFAINGKFASQRITGVQRVGYELAVAFQHLFPHGTDLPLLVPPNARTDVVFPNAKVIGRRLKGSLWEQFSLPFATGRRTLLSLCNMGPLFVRRQVVMVHDVAIYDLPQNYSWKYRLWYRVALSLLKRNVRHIVTVSEFSKKRIVERLGIDASRISVVLNGVDHFEKISPDTAILSRLNLQKDGYVLAVGNLSVGKNLPRILTAVERLNDSHDWKFVVVGGCDLRVFNSGAKVGFDLSKNIVPAGFVSDGELRALYENAACFLFPSLYEGFGLPPLEAMSCGCPVIVSREASLPEVCGDAALYCDAYSVDDIVDKVTQMMADPAARETWRQRGREHARGFRWERSARQLLGILERELAGEVAPPVHAQSAQSDQSAPSRV	not soluble
MPAPLYGADDPLRCSGNSVSEVLDKFRKKYDLIMSLPQETKEEKEFRHCIWLAEKEEREQIYQTSIRPFRKATYTHFPEIDPRLRNYRSRYGAISND	not soluble
MKALNLKTPGREDDDVDEVLDENTVQDVNENIMLKGLGGKENLQTIDHCATRLRLTVKDTALVDEALLKKAGAKGVVKSGGQSVQVIIGPNVEFAAEELRAAVK	not soluble
MAHHHHHHMGKGAVHPNGSNFCRAIKYNIVDKMRMLVETNLYDRPRWLEWAERAPPIEIHNISLKSRYNNNKYIDLVKFLLKKYPHLRFQDCYVEGNNNVKGYDFFRNDHIITQMATHQLYYMNRGYGKKDALQKVEKEFYNRRMELEKKQKINMCLSIDKKIKPLYTDGYAYLYEKMADNEKAHLGLILKKLRAMREKLEKEQGGDGAQPHT	not soluble
IALENTIEQRLAADVATLVSAARVEKGRLVMPEHLPVEEFNLPEAKVLGYIYDQNGDLLWRSTSAADESINYTPRYDGRGNEFHTTRDAKGEEFFVFDVEIDLLRGKQAAYSIVTMQSVSEFESLLKGFREQL	not soluble
MGSDKIHHHHHHVTIEIRQLRYALMSADLRSFSGAASRLNVKQATLSRSVLQLEDRLGIKLFERTTRGAEPTETGKVFLETARRIITDLENLQTTARAVSYGEQGRFAVGYCSSLMAGHLKAAFSDYLTRFPDVQFDGVEGDPDKLCSDLRAGTIDVAIAPLGSEEQGIASRPVWSERLVAALYPEHPLLEASRIYWGDLRREIFVVPRKGIGQMIRNMITARLTGQGYRPNIITQETSLESVLSMVPVGRFITIATEASMGVAWPELQFRDIYDNGGTARIDFALYWREDNENPALQRFFTMINERYPA	not soluble
MKIIAFYLPQFHQIKENDRWWGKGFTEWTNTKSAQPLFSGHYQPREPYQDFYYDLTTPSVRKWQAEIAKAYGIYGFCYYHYWFKGKRLLETPFNEVLKMKEPDFPFCLSWANEPWTKSWDGLDKHILMPQDYGDISDWKEHFDYLLQAFQDERYIYIDDKPLFIIYRPGHIPDCEKMLNYWNALARANGLKGIYFAETLNSFPLPNINGFDASIQFEPFYTIAHDSSSDINKVIYDSDMQLNVWDYDKVWMYILQRSLPKKKTFPGAFVDWDNTARRKNANSSIFVGSTPEKFTIYLSKQIHRTYSFYNSEFLFINAWNEWAEGTYLEPDKKYGFSYLEGVKNAIDRGMKAYKKDESFLEHHHHHH	not soluble
PVFENNNQRYYESLPFKQLKELKIACSQYGPTAPFTIAMIENLGTQALPPNDWKQTARACLSGGDYLLWKSEFFEQCARIADVNRQQGIQTSYEMLIGEGPYQATDTQLNFLPGAYAQISNAARQAWKRLPSLEHHHHHH	soluble
MGSDKIHHHHHHMPTVLALETSCDESAAAVLRLNNGCLQVIASRIASQVEKHAQWGGVVPEVASRLHVEALPHLVEEVLQEAGQSMARFDAVAATVTPGLAGALMVGSVTGRSLAALHALPFFGIHHLEGHLASVRLAEHPPRPPYLVLLVSGGHTELIRVGAESEMVRLGRSHDDAAGEAFDKVGRLLGLAYPGGPAIQALAATGDSGRFSLPKGRVSKPGGGFHPYDFSFSGLKTAMLRLVQALSEADEDLPRADLAASFEQVVADVLVERSLLCANDQGLKTVVMVGGVAANRRLRELMSKRGQEQGIEVHTAPLRYCTDNAAMIGAAALQRLVSGVNGSSLELGVAARWPLDKTEVLYHSPPPF	not soluble
MSLEQASVTNDFSENKQGCIQHPWQGKKVGYIGDSITDPNCYGDNIKKYWDFLKEWLGITPFVYGISGRQWDDVPRQAEKLKKEHGGEVDAILVFMGTNDYNSSVPIGEWFTEQEEQVLSAHGEMKKMVTRKKRTPVMTQDTYRGRINIGITQLKKLFPDKQIVLLTPLHRSLANFGDKNVQPDESYQNGCGEYIDAYVQAIKEAGNIWGIPVIDFNAVTGMNPMVEEQLIYFYDAGYDRLHPDTKGQERMARTLMYQLLALPVAFEGHHHHHH	soluble
MSLDKLLERFLNYVSLDTQSKAGVRQVPSTEGQWKLLHLLKEQLEEMGLINVTLSEKGTLMATLPANVPGDIPAIGFISHVDTSPDCSGKNVNPQIVENYRGGDIALGIGDEVLSPVMFPVLHQLLGQTLITTDGKTLLGADDKAGIAEIMTALAVLQQKKIPHGDIRVAFTPDEEVGKGAKHFDVDAFDARWAYTVDGGGVGELEFENFNAASVNIKIVGNNVHPGTAKGVMVNALSLAARIHAEVPADESPEMTEGYEGFYHLASMKGTVERADMHYIIRDFDRKQFEARKRKMMEIAKKVGKGLHPDCYIELVIEDSYYNMREKVVEHPHILDIAQQAMRDCDIEPELKPIRGGTDGAQLSFMGLPCPNLFTGGYNYHGKHEFVTLEGMEKAVQVIVRIAELTAQRKEGGSHHHHHH	soluble
MSLEIKPEDTWRLEDIFSTDDAWEKEFQEVKQLLPDAGGFQGKLGDSADKLYEALQYQDHLLERLGRLYSYAHMRYDQDTTNSFYQGLDDRIKNLYSQAASSLAYIVPEILAIDEEKISSFLDEKEELRLYKHSLEEINLQRPHVLSAEAEALLAQASEVLDAPGNTFGMLNNADLEFPSIKDENGEEVEVTHGRYIRFLESDDQRVRRDAFKAVYDTYGKFKNTFSSTLSSNVKKDNFYARVRNYDSARHAALSDNNIPESVYENLVNTVNDNLHLLHRYIKLRKEVLGLEKLHMYDLFTPLVKDVKMEIPYDEAKDYVLKGLEPLGEEYLSVLKEGFENRWVDVHENKGKRSGAYSSGAYGTNPYILMNWQDNVNNLFTLAHEFGHSVHSYYTRKTQPYPYGNYSIFVAEVASTCNEALLNDYLLKTIDDDQKRLYLLNHYLEGFRGTVFRQTMFAEFEHQIHQKAQNNEALTAEALTQDYYELNKKYFGEEDIIIDEEIGLEWSRIPHFYYNYYVYQYATGFSAATALSKQILEEGEPAVERYINFLKAGSSDYPIEVLKKAGVDMTSPAPIADACKVFEEKLNEMEELLNREGHHHHHH	soluble
MSQSGEQRRYTLGEFFSLAGDERMELYEGTIVLMYPVPYEHEGVVANLIAEFRMALKGSPCLVFGSNLQVVLLFEDEQKGTKNVTVLPDLSIICDRTKLRQGRCYGAPDLVVEVLSPSTARNDRLLKRLYYEKAGVREYWLVDYQHKVMEKYVWQSGAFQLEDVYDAANGAAASTVFPEVRFSVKEIFAFLTS	not soluble
MAEILRAENIKKVIRGYEILKGISLSVKKGEFVSIIGASGSGKSTLLYILGLLDAPTEGKVFLEGKEVDYTNEKELSLLRNRKLGFVFQFHYLIPELTALENVIVPMLKMGKPKKEAKERGEYLLSELGLGDKLSRKPYELSGGEQQRVAIARALANEPILLFADEPTGNLDSANTKRVMDIFLKINEGGTSIVMVTHERELAELTHRTLEMKDGKVVGEITRV	soluble
GPGSMSAHDSSAMALIAHMNDIEQQRRVLSMSQREQEAKIAFTTAEKEQLVQAAKAAEAEEAQLKDDLEVLATEQQQLELQKMEATDRLRRTQAEEALHTAAVEADLQALAKEKVLWHERAQDLESLRRSWEEDAATSSCIAALRQESEMLAPLKAEKTAVEDALAETMAAIEKVRAEQQARLTCLGSVGAPADAVQRSGLARALASMHGSALSDGNTATVDDDDTAAALEEEIKRADYEAAQVTARHGRTIAVLQREVDALSTRAGELQQLLSSIGASWQEVLSRTRDLQHCKETGLCRRCLT	soluble
GPGSMPPSTAAPYALRTDKLKPLEGYVAGCSVSPAEVASQVASSLQPVVLAICGSFNPIHNAHLKLYDAAKRSVDGADGRVVLGGFLSPVGDAYGKPGLRSAADRVHIMRKALCHHPDLNVDTWECQQPVYMRTFFVLQALEEHINAWYAESEPAAVEWLASHDRRVRVAFVCGADLFSSFWIPGCWQLRLLRQLLDSFHLVVVHRDGGRGCVRGADDFAHVCQTAPLLSETAEGGEKIEIDMSQYTFTFATFSAPDDTSSTAVRAAAMELARTPQGDAVTRAALQSRLRAMLPEAAVQSVVELYGKVLTS	not soluble
MGSDKIHHHHHHMLAICQLVKMKRICFYLKMQKGYMALNKKLKGDGEVLKDSFLAGAGKAKIVFSQDDFPIKQFTGIHDNLYIRVLLIDSNQRFAFVSIDLTSLTKDRIDFYKSLIHQLTSIDEGNIWVSVTHTFSAPHIPLESQKDDEEKIISMMLFKTSAALREAINQALLSMKPADIGFSYSSCPLNINRNIPTRLGWWLGRNDDGYSNHDVRTVTLKQENNEIISILYNFDVQASVMDNVSTKSGELLISSDLVGKASSDIENTFGKNSVAIFLPGSAGDQAPIFKGSNWKIMKNNRLVCSSIHEEAYSLVDQLGVKLSQSVQRAVFKTEKFADNCEIKINHYSVYLPEQRVKYSTKALRPSKKYQFEKPVIHFLSLLIFCT	not soluble
MCFTKKSTKTPPEPISKDSADKKKKTTIKKGKKFPMMNMIVKNKKNEVQVEKKPEEVPEQNKSVKDQTKKEEVKVVEEDKVEKKVEQKKPIINRPNCVAINPRSATSGKKNKYKFKYGQIDQQELSINNDKTEYLENAQLTKLMSHADVRALMGGQFAQGENADTNNCQDTVEEVDSEMLEIAFSPLLAVIPREDERVYGAFVHPTEQKKNAEA	soluble
MGSSHHHHHHNFYDSDPHISELTPKSFDKAIHNTNYTSLVEFYAPWCGHCKKLSSTFRKAAKRLDGVVQVAAVNCDLNKNKALCAKYDVNGFPTLMVFRPPKIDLSKPIDNAKKSFSAHANEVYSGARTLAPIVDFSLSRIRSYVKKFVRIDTLGSLLRKSPKLSVVLFSKQDKISPVYKSIALDWLGKFDFYSISNKKLKQLTDMNPTYEKTPEIFKYLQKVIPEQRQSDKSKLVVFDADKDKFWEYEGNSINKNDISKFLRDTFSITPNEGPFSRRSEYIAYLKTGKKPIKKNHSS	soluble
